T1: ADAMTS5 (human, UniProt Q9UNA0 262-622, limits assumed)
T1 sequence (looked up): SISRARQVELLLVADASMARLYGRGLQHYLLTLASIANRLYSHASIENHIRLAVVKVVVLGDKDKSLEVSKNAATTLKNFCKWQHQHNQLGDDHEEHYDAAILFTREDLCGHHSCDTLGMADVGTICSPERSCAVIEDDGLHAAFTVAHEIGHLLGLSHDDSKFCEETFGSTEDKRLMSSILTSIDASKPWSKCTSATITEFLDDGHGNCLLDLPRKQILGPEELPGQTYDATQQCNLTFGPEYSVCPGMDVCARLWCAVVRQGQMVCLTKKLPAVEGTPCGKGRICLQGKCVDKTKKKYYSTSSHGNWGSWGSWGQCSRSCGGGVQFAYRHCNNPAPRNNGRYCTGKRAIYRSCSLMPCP

T2: MMP7 (UniProt P09237 95-267, limits assumed)
T2 sequence (looked up): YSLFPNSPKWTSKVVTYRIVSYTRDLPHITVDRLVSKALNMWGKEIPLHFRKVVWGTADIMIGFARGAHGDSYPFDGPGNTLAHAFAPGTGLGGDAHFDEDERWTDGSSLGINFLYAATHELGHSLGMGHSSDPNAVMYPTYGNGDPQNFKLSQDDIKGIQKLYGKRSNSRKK

T3: ADAMTS4 (human, UniProt O75173 213-685, limits assumed)
T3 sequence (looked up): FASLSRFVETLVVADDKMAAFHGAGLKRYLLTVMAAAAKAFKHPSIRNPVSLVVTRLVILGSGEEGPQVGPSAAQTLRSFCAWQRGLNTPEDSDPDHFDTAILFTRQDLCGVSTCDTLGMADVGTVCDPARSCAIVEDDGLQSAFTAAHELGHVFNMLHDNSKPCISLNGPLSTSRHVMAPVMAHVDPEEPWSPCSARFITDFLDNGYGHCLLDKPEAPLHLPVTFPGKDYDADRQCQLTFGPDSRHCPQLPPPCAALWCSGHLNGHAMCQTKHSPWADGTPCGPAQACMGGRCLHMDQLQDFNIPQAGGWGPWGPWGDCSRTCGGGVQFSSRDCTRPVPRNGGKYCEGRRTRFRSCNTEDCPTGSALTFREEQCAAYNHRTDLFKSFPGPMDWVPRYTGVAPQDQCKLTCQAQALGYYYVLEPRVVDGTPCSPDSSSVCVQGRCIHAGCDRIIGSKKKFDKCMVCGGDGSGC

T4: MMP2 (human, UniProt P08253 110-660, limits assumed)
T4 sequence (looked up): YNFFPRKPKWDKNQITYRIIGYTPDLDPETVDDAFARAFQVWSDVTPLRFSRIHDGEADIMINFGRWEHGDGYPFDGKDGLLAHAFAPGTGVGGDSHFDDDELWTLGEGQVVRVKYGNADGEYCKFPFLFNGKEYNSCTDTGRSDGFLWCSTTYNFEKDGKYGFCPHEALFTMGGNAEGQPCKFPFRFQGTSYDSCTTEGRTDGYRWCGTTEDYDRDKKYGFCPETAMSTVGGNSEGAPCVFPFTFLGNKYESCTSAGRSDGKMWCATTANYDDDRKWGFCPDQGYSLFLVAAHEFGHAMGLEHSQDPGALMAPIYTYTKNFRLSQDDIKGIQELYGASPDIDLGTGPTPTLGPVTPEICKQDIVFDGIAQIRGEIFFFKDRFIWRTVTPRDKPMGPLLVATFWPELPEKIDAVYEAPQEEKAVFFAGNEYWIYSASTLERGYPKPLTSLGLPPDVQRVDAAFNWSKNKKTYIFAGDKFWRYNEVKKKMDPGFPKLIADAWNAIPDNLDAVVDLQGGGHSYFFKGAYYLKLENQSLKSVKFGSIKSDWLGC

T5: Cathepsin G (UniProt P08311 21-244)
T5 sequence (looked up): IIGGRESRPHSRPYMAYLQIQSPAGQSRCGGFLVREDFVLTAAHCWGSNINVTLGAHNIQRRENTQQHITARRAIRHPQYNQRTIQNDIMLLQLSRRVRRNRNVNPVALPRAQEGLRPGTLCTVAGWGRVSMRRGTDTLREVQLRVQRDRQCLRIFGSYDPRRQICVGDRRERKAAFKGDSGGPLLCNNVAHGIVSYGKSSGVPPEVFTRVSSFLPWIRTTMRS

T6: MMP1 (human, UniProt P03956 100-469, limits assumed)
T6 sequence (looked up): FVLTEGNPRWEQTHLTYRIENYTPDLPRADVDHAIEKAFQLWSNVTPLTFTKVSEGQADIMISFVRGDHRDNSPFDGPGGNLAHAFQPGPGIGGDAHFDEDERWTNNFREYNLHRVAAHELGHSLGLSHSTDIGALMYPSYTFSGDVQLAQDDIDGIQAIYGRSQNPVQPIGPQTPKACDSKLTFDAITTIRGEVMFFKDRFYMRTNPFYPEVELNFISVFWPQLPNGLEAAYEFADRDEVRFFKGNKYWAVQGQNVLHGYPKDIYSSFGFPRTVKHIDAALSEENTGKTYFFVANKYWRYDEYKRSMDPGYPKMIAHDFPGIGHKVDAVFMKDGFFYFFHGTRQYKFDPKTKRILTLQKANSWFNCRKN

B1: Variant A2M, bait region SEQ ID NO 9 (other)
chain: SVSGKPQYMVLVPSLLHTETTEKGCVLLSYLNETVTVSASLESVRGNRSLFTDLEAENDVLHCVAFAVPKSSSNEEVMFLTVQVKGPTQEFKKRTTVMVKNEDSLVFVQTDKSIYKPGQTVKFRVVSMDENFHPLNELIPLVYIQDPKGNRIAQWQSFQLEGGLKQFSFPLSSEPFQGSYKVVVQKKSGGRTEHPFTVEEFVLPKFEVQVTVPKIITILEEEMNVSVCGLYTYGKPVPGHVTVSICRKYSDASDCHGEDSQAFCEKFSGQLNSHGCFYQQVKTKVFQLKRKEYEMKLHTEAQIQEEGTVVELTGRQSSEITRTITKLSFVKVDSHFRQGIPFFGQVRLVDGKGVPIPNKVIFIRGNEANYYSNATTDEHGLVQFSINTTNVMGTSLTVRVNYKDRSPCYGYQWVSEEHEEAHHTAYLVFSPSKSFVHLEPMSHELPCGHTQTVQAHYILNGGTLLGLKKLSFYYLIMAKGGIVRTGTHGLLVKQEDMKGHFSISIPVKSDIAPVARLLIYAVLPTGDVIGDSAKYDVENCLANKVDLSFSPSQSLPASHAHLRVTAAPQSVCALRAVDQSVLLMKPDAELSASSVYNLLPEKDLTGFPGPLNDQDDEDCINRHNVYINGITYTPVSSTNEKDMYSFLEDMGLKAFTNSKIRKPKMCPQLEHGPEGEGEGEGIPENFFGVPRYLSEDLVVQISELEGRGSVEEPHTKLRKYFPETWIWDLVVVNSAGVAEVGVTVPDTITEWKAGAFCLSEDAGLGISSTASLRAFQPFFVELTMPYSVIRGEAFTLKATVLNYLPKCIRVSVQLEASPAFLAVPVEKEQAPHCICANGRQTVSWAVTPKSLGNVNFTVSAEALESQELCGTEVPSVPEHGRKDTVIKPLLVEPEGLEKETTFNSLLCPSGGEVSEELSLKLPPNVVEESARASVSVLGDILGSAMQNTQNLLQMPYGCGEQNMVLFAPNIYVLDYLNETQQLTPEIKSKAIGYLNTGYQRQLNYKHYDGSYSTFGERYGRNQGNTWLTAFVLKTFAQARAYIFIDEAHITQALIWLSQRQKDNGCFRSSGSLLNNAIKGGVEDEVTLSAYITIALLEIPLTVTHPVVRNALFCLESAWKTAQEGDHGSHVYTKALLAYAFALAGNQDKRKEVLKSLNEEAVKKDNSVHWERPQKPKAPVGHFYEPQAPSAEVEMTSYVLLAYLTAQPAPTSEDLTSATNIVKWITKQQNAQGGFSSTQDTVVALHALSKYGAATFTRTGKAAQVTIQSSGTFSSKFQVDNNNRLLLQQVSLPELPGEYSMKVTGEGCVYLQTSLKYNILPEKEEFPFALGVQTLPQTCDEPKAHTSFQISLSVSYTGSRSASNMAIVDVKMVSGFIPLKPTVKMLERSNHVSRTEVSSNHVLIYLDKVSNQTLSLFFTVLQDVPVRDLKPAIVKVYDYYETDEFAIAEYNAPCSKDLGNADYKDDDDKGASHHHHHH
B2: Variant A2M, bait region SEQ ID NO 10 (other)
chain: SVSGKPQYMVLVPSLLHTETTEKGCVLLSYLNETVTVSASLESVRGNRSLFTDLEAENDVLHCVAFAVPKSSSNEEVMFLTVQVKGPTQEFKKRTTVMVKNEDSLVFVQTDKSIYKPGQTVKFRVVSMDENFHPLNELIPLVYIQDPKGNRIAQWQSFQLEGGLKQFSFPLSSEPFQGSYKVVVQKKSGGRTEHPFTVEEFVLPKFEVQVTVPKIITILEEEMNVSVCGLYTYGKPVPGHVTVSICRKYSDASDCHGEDSQAFCEKFSGQLNSHGCFYQQVKTKVFQLKRKEYEMKLHTEAQIQEEGTVVELTGRQSSEITRTITKLSFVKVDSHFRQGIPFFGQVRLVDGKGVPIPNKVIFIRGNEANYYSNATTDEHGLVQFSINTTNVMGTSLTVRVNYKDRSPCYGYQWVSEEHEEAHHTAYLVFSPSKSFVHLEPMSHELPCGHTQTVQAHYILNGGTLLGLKKLSFYYLIMAKGGIVRTGTHGLLVKQEDMKGHFSISIPVKSDIAPVARLLIYAVLPTGDVIGDSAKYDVENCLANKVDLSFSPSQSLPASHAHLRVTAAPQSVCALRAVDQSVLLMKPDAELSASSVYNLLPEKDLTGFPGPLNDQDDEDCINRHNVYINGITYTPVSSTNEKDMYSFLEDMGLKAFTNSKIRKPKMCPQLEHGPEGEGLGEGIPENFYGVSEDLVVQISELEGRGSVEEPHTKLRKYFPETWIWDLVVVNSAGVAEVGVTVPDTITEWKAGAFCLSEDAGLGISSTASLRAFQPFFVELTMPYSVIRGEAFTLKATVLNYLPKCIRVSVQLEASPAFLAVPVEKEQAPHCICANGRQTVSWAVTPKSLGNVNFTVSAEALESQELCGTEVPSVPEHGRKDTVIKPLLVEPEGLEKETTFNSLLCPSGGEVSEELSLKLPPNVVEESARASVSVLGDILGSAMQNTQNLLQMPYGCGEQNMVLFAPNIYVLDYLNETQQLTPEIKSKAIGYLNTGYQRQLNYKHYDGSYSTFGERYGRNQGNTWLTAFVLKTFAQARAYIFIDEAHITQALIWLSQRQKDNGCFRSSGSLLNNAIKGGVEDEVTLSAYITIALLEIPLTVTHPVVRNALFCLESAWKTAQEGDHGSHVYTKALLAYAFALAGNQDKRKEVLKSLNEEAVKKDNSVHWERPQKPKAPVGHFYEPQAPSAEVEMTSYVLLAYLTAQPAPTSEDLTSATNIVKWITKQQNAQGGFSSTQDTVVALHALSKYGAATFTRTGKAAQVTIQSSGTFSSKFQVDNNNRLLLQQVSLPELPGEYSMKVTGEGCVYLQTSLKYNILPEKEEFPFALGVQTLPQTCDEPKAHTSFQISLSVSYTGSRSASNMAIVDVKMVSGFIPLKPTVKMLERSNHVSRTEVSSNHVLIYLDKVSNQTLSLFFTVLQDVPVRDLKPAIVKVYDYYETDEFAIAEYNAPCSKDLGNADYKDDDDKGASHHHHHH

Tests used:
Assay in all cases: cell-based or functional assay
[1] = molecular target: T1, ADAMTS5
[2] = molecular target: T2, MMP7
[3] = molecular target: T3, ADAMTS4
[4] = molecular target: MMP9 (human, UniProt P14780 107-707, limits assumed)
Sequence of MMP9 (P14780 107-707 limits assumed): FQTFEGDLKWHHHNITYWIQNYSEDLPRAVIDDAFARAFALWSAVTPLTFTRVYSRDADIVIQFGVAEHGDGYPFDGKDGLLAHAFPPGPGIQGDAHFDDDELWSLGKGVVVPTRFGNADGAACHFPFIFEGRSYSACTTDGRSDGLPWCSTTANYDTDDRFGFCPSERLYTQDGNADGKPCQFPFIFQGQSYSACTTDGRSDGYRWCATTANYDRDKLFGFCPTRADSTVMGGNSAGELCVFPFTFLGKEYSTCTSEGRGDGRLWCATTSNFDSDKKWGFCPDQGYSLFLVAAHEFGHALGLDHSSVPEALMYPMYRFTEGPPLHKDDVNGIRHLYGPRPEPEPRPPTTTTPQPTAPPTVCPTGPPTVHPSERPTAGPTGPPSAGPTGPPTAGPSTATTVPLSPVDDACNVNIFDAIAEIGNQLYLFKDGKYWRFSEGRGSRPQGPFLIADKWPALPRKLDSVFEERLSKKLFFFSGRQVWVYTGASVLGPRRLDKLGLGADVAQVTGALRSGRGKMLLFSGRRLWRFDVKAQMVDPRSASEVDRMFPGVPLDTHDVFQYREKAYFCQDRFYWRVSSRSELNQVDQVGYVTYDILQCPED

[5] = molecular target: T4, MMP2
[6] = molecular target: MMP13 (human, UniProt P45452 104-471, limits assumed)
[7] = molecular target: T5, Cathepsin G
[8] = molecular target: MMP3 (human, UniProt P08254 100-477, limits assumed)
Sequence of MMP3 (P08254 100-477 limits assumed): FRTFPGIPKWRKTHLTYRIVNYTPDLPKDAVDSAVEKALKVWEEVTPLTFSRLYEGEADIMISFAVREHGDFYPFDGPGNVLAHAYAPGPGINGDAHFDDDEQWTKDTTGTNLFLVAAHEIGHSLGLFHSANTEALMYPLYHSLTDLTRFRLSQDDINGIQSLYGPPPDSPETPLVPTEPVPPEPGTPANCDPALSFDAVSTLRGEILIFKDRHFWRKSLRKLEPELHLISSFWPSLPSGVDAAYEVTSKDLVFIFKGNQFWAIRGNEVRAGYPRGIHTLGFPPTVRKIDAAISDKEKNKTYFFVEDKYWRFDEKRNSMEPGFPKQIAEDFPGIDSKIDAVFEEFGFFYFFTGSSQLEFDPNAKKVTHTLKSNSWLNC

[9] = molecular target: T6, MMP1
[10] = molecular target: MMP8 (human, UniProt P22894 101-467, limits assumed)
Sequence of MMP8 (P22894 101-467 limits assumed): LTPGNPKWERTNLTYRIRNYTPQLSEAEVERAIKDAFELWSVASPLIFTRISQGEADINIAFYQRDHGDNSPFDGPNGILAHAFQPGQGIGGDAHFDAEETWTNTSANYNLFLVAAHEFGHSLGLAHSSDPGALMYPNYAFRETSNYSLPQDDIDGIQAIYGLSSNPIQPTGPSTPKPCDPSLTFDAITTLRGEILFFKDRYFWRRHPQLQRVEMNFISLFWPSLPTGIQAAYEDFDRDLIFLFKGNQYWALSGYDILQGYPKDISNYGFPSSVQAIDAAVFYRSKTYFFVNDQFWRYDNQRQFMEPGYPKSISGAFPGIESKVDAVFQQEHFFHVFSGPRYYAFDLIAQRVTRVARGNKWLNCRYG

[11] = molecular target: Elastase

Binder | Protease Inhibition (% of WT) [1] | Protease Inhibition (% of WT) [2] | Protease Inhibition (% of WT) [3] | Protease Inhibition (% of WT) [4] | Protease Inhibition (% of WT) [5] | Protease Inhibition (% of WT) [6] | Protease Inhibition (% of WT) [7] | Protease Inhibition (% of WT) [8] | Protease Inhibition (% of WT) [9] | Protease Inhibition (% of WT) [10] | Protease Inhibition (% of WT) [11]
B1 | 145 % of WT | 80 % of WT | 124 % of WT | 20 % of WT | 27 % of WT | 88 % of WT | 66 % of WT | 27 % of WT | 67 % of WT | 33 % of WT | 93 % of WT
B2 | 412 % of WT | 191 % of WT | 159 % of WT | 16 % of WT | 25 % of WT | 128 % of WT | 134 % of WT | 27 % of WT | 111 % of WT | 38 % of WT | 106 % of WT

From patent US20230250154A1 (CYTONICS, published 2023)
